Reference: patent publication US6413737

Target: human prothrombin, P00734

Protein | Ecarin Activity, 48 Hours, +APMA | Ecarin Activity, 48 Hours, -APMA | Ecarin Activity, 120 Hours, +APMA | Ecarin Activity, 120 Hours, -APMA | prothrombin converting activity | conversion of prothrombin to thrombin by immobilized ecarin, Coomassie stained SDS-PAGE
preproecarin S396, delta IV (pDOEC37) (protein) CSIILGSGNVNDYEVVYPQKVTALPKGAVQQPEQKYEDAMQYEFEVKGEPVVLHLEKNKELFSEDYSETHYSSDDREITTNPSVEDHCYYHGRIQNDAESTASISACNGLKGHFKLRGETYFIEPLKIPDSEAHAVYKYENIENEDEAPKMCGVTQDNWESDEPIKKTLGLIVPPHERKFEKKFIELVVVVDHSMVTKYNNDSTAIRTWIYEMLNTVNEIYLPFNIRVALVGLEFWCNGDLINVTSTADDTLHSFGEWRASDLLNRKRHDHAQLLTNVTLDHSTLGITFVYGMCKSDRSVELILDYSNITFNMAYIIAHEMGHSLGMLHDTKFCTCGAKPCIMFGKESIPPPKEFSSCSYDQYNKYLLKYNPKCILDSPLRKDIASPAVCGNEIWEEGEECDCGSPADCRNPCCDAATCKLKPGAECGNGECCDKCKIRKAGTECRPARDDCDVAEHCTGQSAECPRNEFQR | 0 | 0 | 68 | 34 | Deletion of the Cys-rich domain (positions 491 to 616) or the disintegrin and Cys-rich domains (398-616) abolished all ecarin activity in the presence or absence of APMA | 
preproecarin S396, S170, delta IV (pDOEC39) (protein) CSIILGSGNVNDYEVVYPQKVTALPKGAVQQPEQKYEDAMQYEFEVKGEPVVLHLEKNKELFSEDYSETHYSSDDREITTNPSVEDHCYYHGRIQNDAESTASISACNGLKGHFKLRGETYFIEPLKIPDSEAHAVYKYENIENEDEAPKMSGVTQDNWESDEPIKKTLGLIVPPHERKFEKKFIELVVVVDHSMVTKYNNDSTAIRTWIYEMLNTVNEIYLPFNIRVALVGLEFWCNGDLINVTSTADDTLHSFGEWRASDLLNRKRHDHAQLLTNVTLDHSTLGITFVYGMCKSDRSVELILDYSNITFNMAYIIAHEMGHSLGMLHDTKFCTCGAKPCIMFGKESIPPPKEFSSCSYDQYNKYLLKYNPKCILDSPLRKDIASPAVCGNEIWEEGEECDCGSPADCRNPCCDAATCKLKPGAECGNGECCDKCKIRKAGTECRPARDDCDVAEHCTGQSAECPRNEFQR | 0 | 0 | 0 | 0 | Deletion of the Cys-rich domain (positions 491 to 616) or the disintegrin and Cys-rich domains (398-616) abolished all ecarin activity in the presence or absence of APMA | 
preproecarin S396, S170, His6 (pDOEC35) (protein) CSIILGSGNVNDYEVVYPQKVTALPKGAVQQPEQKYEDAMQYEFEVKGEPVVLHLEKNKELFSEDYSETHYSSDDREITTNPSVEDHCYYHGRIQNDAESTASISACNGLKGHFKLRGETYFIEPLKIPDSEAHAVYKYENIENEDEAPKMSGVTQDNWESDEPIKKTLGLIVPPHERKFEKKFIELVVVVDHSMVTKYNNDSTAIRTWIYEMLNTVNEIYLPFNIRVALVGLEFWCNGDLINVTSTADDTLHSFGEWRASDLLNRKRHDHAQLLTNVTLDHSTLGITFVYGMCKSDRSVELILDYSNITFNMAYIIAHEMGHSLGMLHDTKFCTCGAKPCIMFGKESIPPPKEFSSCSYDQYNKYLLKYNPKCILDSPLRKDIASPAVCGNEIWEEGEECDCGSPADCRNPCCDAATCKLKPGAECGNGECCDKCKIRKAGTECRPARDDCDVAEHCTGQSAECPRNEFQRNGQPCLNNSGYCYNGDCPIMLNQCIALFSPSATVAQDSCFQRNLQGSYYGYCTKEIGYYGKRFPCAPQDVKCGRLYCLDNSFKKNMRCKNDYSYADENKGIVEPGTKCEDGKVCINRKCVDVNTAYHHHHHH | 7,526 | 12,127 | 14,850 | 20,524 | Alteration of position 170 to serine resulted in constituitive activation of proecarin, which was partially inhibited by the addition of APMA | 
preproecarin P396, His6 (pDOEC34) (protein) CSIILGSGNVNDYEVVYPQKVTALPKGAVQQPEQKYEDAMQYEFEVKGEPVVLHLEKNKELFSEDYSETHYSSDDREITTNPSVEDHCYYHGRIQNDAESTASISACNGLKGHFKLRGETYFIEPLKIPDSEAHAVYKYENIENEDEAPKMCGVTQDNWESDEPIKKTLGLIVPPHERKFEKKFIELVVVVDHSMVTKYNNDSTAIRTWIYEMLNTVNEIYLPFNIRVALVGLEFWCNGDLINVTSTADDTLHSFGEWRASDLLNRKRHDHAQLLTNVTLDHSTLGITFVYGMCKSDRSVELILDYSNITFNMAYIIAHEMGHSLGMLHDTKFCTCGAKPCIMFGKESIPPPKEFSSCSYDQYNKYLLKYNPKCILDPPLRKDIASPAVCGNEIWEEGEECDCGSPADCRNPCCDAATCKLKPGAECGNGECCDKCKIRKAGTECRPARDDCDVAEHCTGQSAECPRNEFQRNGQPCLNNSGYCYNGDCPIMLNQCIALFSPSATVAQDSCFQRNLQGSYYGYCTKEIGYYGKRFPCAPQDVKCGRLYCLDNSFKKNMRCKNDYSYADENKGIVEPGTKCEDGKVCINRKCVDVNTAYHHHHHH | 32 | 36 | 0 | 43 | Proecarin having the sequence disclosed in Nishida et al. (supra) had no activity in the presence or absence of APMA | 
preproecarin S396, His6 (pDOEC30) (protein) CSIILGSGNVNDYEVVYPQKVTALPKGAVQQPEQKYEDAMQYEFEVKGEPVVLHLEKNKELFSEDYSETHYSSDDREITTNPSVEDHCYYHGRIQNDAESTASISACNGLKGHFKLRGETYFIEPLKIPDSEAHAVYKYENIENEDEAPKMCGVTQDNWESDEPIKKTLGLIVPPHERKFEKKFIELVVVVDHSMVTKYNNDSTAIRTWIYEMLNTVNEIYLPFNIRVALVGLEFWCNGDLINVTSTADDTLHSFGEWRASDLLNRKRHDHAQLLTNVTLDHSTLGITFVYGMCKSDRSVELILDYSNITFNMAYIIAHEMGHSLGMLHDTKFCTCGAKPCIMFGKESIPPPKEFSSCSYDQYNKYLLKYNPKCILDSPLRKDIASPAVCGNEIWEEGEECDCGSPADCRNPCCDAATCKLKPGAECGNGECCDKCKIRKAGTECRPARDDCDVAEHCTGQSAECPRNEFQRNGQPCLNNSGYCYNGDCPIMLNQCIALFSPSATVAQDSCFQRNLQGSYYGYCTKEIGYYGKRFPCAPQDVKCGRLYCLDNSFKKNMRCKNDYSYADENKGIVEPGTKCEDGKVCINRKCVDVNTAYHHHHHH | 74,077 | 20,079 | 164,602 | 28,372 | Proecarin having a serine at position 396 was active in the absence of APMA, and the amount of activity increased several fold by pretreatment with APMA | essentially complete (greater than 95%)
preproecarin S396, delta III, IV (pDOEC38) (protein) CSIILGSGNVNDYEVVYPQKVTALPKGAVQQPEQKYEDAMQYEFEVKGEPVVLHLEKNKELFSEDYSETHYSSDDREITTNPSVEDHCYYHGRIQNDAESTASISACNGLKGHFKLRGETYFIEPLKIPDSEAHAVYKYENIENEDEAPKMCGVTQDNWESDEPIKKTLGLIVPPHERKFEKKFIELVVVVDHSMVTKYNNDSTAIRTWIYEMLNTVNEIYLPFNIRVALVGLEFWCNGDLINVTSTADDTLHSFGEWRASDLLNRKRHDHAQLLTNVTLDHSTLGITFVYGMCKSDRSVELILDYSNITFNMAYIIAHEMGHSLGMLHDTKFCTCGAKPCIMFGKESIPPPKEFSSCSYDQYNKYLLKYNPKCILDSP | 0 | 0 | 14 | 0 | Deletion of the Cys-rich domain (positions 491 to 616) or the disintegrin and Cys-rich domains (398-616) abolished all ecarin activity in the presence or absence of APMA | 
preproecarin S396, S170 delta III, IV (pDOEC40) (protein) CSIILGSGNVNDYEVVYPQKVTALPKGAVQQPEQKYEDAMQYEFEVKGEPVVLHLEKNKELFSEDYSETHYSSDDREITTNPSVEDHCYYHGRIQNDAESTASISACNGLKGHFKLRGETYFIEPLKIPDSEAHAVYKYENIENEDEAPKMSGVTQDNWESDEPIKKTLGLIVPPHERKFEKKFIELVVVVDHSMVTKYNNDSTAIRTWIYEMLNTVNEIYLPFNIRVALVGLEFWCNGDLINVTSTADDTLHSFGEWRASDLLNRKRHDHAQLLTNVTLDHSTLGITFVYGMCKSDRSVELILDYSNITFNMAYIIAHEMGHSLGMLHDTKFCTCGAKPCIMFGKESIPPPKEFSSCSYDQYNKYLLKYNPKCILDSP | 50 | 0 | 0 | 0 | Deletion of the Cys-rich domain (positions 491 to 616) or the disintegrin and Cys-rich domains (398-616) abolished all ecarin activity in the presence or absence of APMA | 
